Results on nine molecules are retold here after PMC9061753, “Mre11-Rad50 oligomerization promotes DNA double-strand break repair” (Nature Communications, 2022).

Data set [1] deals with T1, Mre11-Rad50 (MRwt) (S. cerevisiae, UniProt P32829;P12753 1-692;1-1312). Briefly: EMSA; ATPgS, 5 mM Mg2+, 30 mM NaCl; mean of the 3 visible of 4 replicates (14.03, 13.92, 12.72); apparent; Oligo EMSA: 25 mM Tris acetate pH 7.5, 1 mM DTT, 0.25 mg/ml BSA, 5 mM Mg acetate, 1 mM ATPgS, 30 mM NaCl, 30 C 15 min, 100 nM bp DNA; plasmid EMSA: 80 mM KCl, plus 1 mM MnCl2, 30 C 1 h; mass photometry 25 mM KCl. The conditions noted are these: protein: recombinant; tags: Mre11-6xHis; Rad50 untagged; chain copies: 2;2; label: 3'-32P on strand 1 (terminal transferase); blunt before 3' labeling. In general terms: Mobility shift assays separate free from complexed probe on a gel.
T1 sequence (P32829 whole entry, one chain of several): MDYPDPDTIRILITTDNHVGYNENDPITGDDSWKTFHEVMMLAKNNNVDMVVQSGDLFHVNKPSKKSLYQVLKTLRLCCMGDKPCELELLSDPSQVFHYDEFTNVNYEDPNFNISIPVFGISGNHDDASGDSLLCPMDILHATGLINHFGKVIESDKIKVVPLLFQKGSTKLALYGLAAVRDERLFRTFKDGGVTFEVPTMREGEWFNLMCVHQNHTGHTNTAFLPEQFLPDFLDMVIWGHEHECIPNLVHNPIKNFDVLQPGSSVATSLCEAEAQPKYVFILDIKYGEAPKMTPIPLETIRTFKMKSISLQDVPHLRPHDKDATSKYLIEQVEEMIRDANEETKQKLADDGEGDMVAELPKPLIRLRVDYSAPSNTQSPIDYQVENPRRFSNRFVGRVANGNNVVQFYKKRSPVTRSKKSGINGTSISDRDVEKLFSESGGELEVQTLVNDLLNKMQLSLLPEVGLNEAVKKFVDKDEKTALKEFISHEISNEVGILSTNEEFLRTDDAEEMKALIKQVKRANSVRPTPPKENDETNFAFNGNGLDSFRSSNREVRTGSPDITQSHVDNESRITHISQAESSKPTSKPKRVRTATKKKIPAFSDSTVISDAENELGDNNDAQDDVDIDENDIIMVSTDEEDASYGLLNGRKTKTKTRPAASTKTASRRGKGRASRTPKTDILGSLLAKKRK

Data set [2] has as its target T1, Mre11-Rad50 (MRwt). In words: EMSA; ATPgS, 5 mM Mg2+, 30 mM NaCl; mean of the 2 visible of 3 replicates (7.787, 6.135); apparent; Oligo EMSA: 25 mM Tris acetate pH 7.5, 1 mM DTT, 0.25 mg/ml BSA, 5 mM Mg acetate, 1 mM ATPgS, 30 mM NaCl, 30 C 15 min, 100 nM bp DNA; plasmid EMSA: 80 mM KCl, plus 1 mM MnCl2, 30 C 1 h; mass photometry 25 mM KCl. The settings on record: protein: recombinant; tags: Mre11-6xHis; Rad50 untagged; chain copies: 2;2; label: 3'-32P; blunt before 3' labeling.

Data set [3] has as its target T1, Mre11-Rad50 (MRwt). Briefly: mass photometry; 25 mM KCl; two dimers per DNA detected; Oligo EMSA: 25 mM Tris acetate pH 7.5, 1 mM DTT, 0.25 mg/ml BSA, 5 mM Mg acetate, 1 mM ATPgS, 30 mM NaCl, 30 C 15 min, 100 nM bp DNA; plasmid EMSA: 80 mM KCl, plus 1 mM MnCl2, 30 C 1 h; mass photometry 25 mM KCl. The conditions noted are these: protein: recombinant; tags: Mre11-6xHis; Rad50 untagged; chain copies: 2;2; blunt.

In data set [4] the target is T2, MRho (S. cerevisiae, UniProt P32829;P12753 1-692;1-1312, N121A;D124N;Rad50:). Briefly: mass photometry; 25 mM KCl; Oligo EMSA: 25 mM Tris acetate pH 7.5, 1 mM DTT, 0.25 mg/ml BSA, 5 mM Mg acetate, 1 mM ATPgS, 30 mM NaCl, 30 C 15 min, 100 nM bp DNA; plasmid EMSA: 80 mM KCl, plus 1 mM MnCl2, 30 C 1 h; mass photometry 25 mM KCl. The conditions noted are these: protein: recombinant, tags: Mre11-6xHis, Rad50 untagged, chain copies: 2;2.
T2 sequence (P32829 whole entry, stated change not applied, one chain of several): as the sequence (P32829 whole entry, one chain of several) above

The target in data set [5] is Mre11-Rad50-Xrs2 (MRX) (S. cerevisiae, UniProt P32829;P12753;P33301 1-692;1-1312;1-854). The description is as above. The settings on record: protein: recombinant; tags: His-Mre11; Rad50 untagged; Xrs2-FLAG; chain copies: 2;2;1; blunt.
Sequence of Mre11-Rad50-Xrs2 (MRX) (P32829 whole entry, chain 1 of 2): as the sequence (P32829 whole entry, one chain of several) above
Sequence of Mre11-Rad50-Xrs2 (MRX) (P33301 whole entry, chain 3 of 2): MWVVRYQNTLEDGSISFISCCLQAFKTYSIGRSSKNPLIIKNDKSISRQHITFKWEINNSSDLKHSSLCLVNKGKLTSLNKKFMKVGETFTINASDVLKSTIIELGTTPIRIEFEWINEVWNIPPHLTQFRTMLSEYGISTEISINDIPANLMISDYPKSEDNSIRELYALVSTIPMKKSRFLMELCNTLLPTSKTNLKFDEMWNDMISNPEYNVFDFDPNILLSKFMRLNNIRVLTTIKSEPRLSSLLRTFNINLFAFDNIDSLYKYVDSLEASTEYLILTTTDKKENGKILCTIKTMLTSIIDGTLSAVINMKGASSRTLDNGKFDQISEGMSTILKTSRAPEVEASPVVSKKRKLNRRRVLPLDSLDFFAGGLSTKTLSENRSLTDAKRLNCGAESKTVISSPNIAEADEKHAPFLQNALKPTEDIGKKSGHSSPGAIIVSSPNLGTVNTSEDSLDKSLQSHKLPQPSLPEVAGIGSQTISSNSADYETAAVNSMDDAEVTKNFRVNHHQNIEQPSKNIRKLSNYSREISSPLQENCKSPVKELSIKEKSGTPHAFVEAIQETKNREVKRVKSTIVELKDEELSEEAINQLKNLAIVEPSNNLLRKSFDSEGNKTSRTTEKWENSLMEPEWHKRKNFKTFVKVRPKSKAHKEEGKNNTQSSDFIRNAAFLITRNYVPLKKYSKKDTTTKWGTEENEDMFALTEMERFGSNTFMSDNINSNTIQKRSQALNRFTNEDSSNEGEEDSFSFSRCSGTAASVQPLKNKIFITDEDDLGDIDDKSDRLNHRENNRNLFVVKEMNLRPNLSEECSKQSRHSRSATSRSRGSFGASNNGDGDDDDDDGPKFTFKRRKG
Data set [6] has as its target T2, MRho. Briefly: mass photometry; 25 mM KCl; two dimers per DNA detected; Oligo EMSA: 25 mM Tris acetate pH 7.5, 1 mM DTT, 0.25 mg/ml BSA, 5 mM Mg acetate, 1 mM ATPgS, 30 mM NaCl, 30 C 15 min, 100 nM bp DNA; plasmid EMSA: 80 mM KCl, plus 1 mM MnCl2, 30 C 1 h; mass photometry 25 mM KCl. The conditions noted are these: protein: recombinant; tags: Mre11-6xHis; Rad50 untagged; chain copies: 2;2; bottom as printed is a circular permutation of the complement of top (possible printing error); stated 73 bp.

The target in data set [7] is T1, Mre11-Rad50 (MRwt). Briefly: mass photometry; 25 mM KCl; Oligo EMSA: 25 mM Tris acetate pH 7.5, 1 mM DTT, 0.25 mg/ml BSA, 5 mM Mg acetate, 1 mM ATPgS, 30 mM NaCl, 30 C 15 min, 100 nM bp DNA; plasmid EMSA: 80 mM KCl, plus 1 mM MnCl2, 30 C 1 h; mass photometry 25 mM KCl. The settings on record: protein: recombinant; tags: Mre11-6xHis; Rad50 untagged; chain copies: 2;2; bottom as printed is a circular permutation of the complement of top (possible printing error); stated 73 bp.

Data set [8] addresses T1, Mre11-Rad50 (MRwt). In words: EMSA; ATPgS, 5 mM Mg2+, 30 mM NaCl; mean of the 3 visible of 4 replicates (20.5, 22.96, 22.55); apparent; Oligo EMSA: 25 mM Tris acetate pH 7.5, 1 mM DTT, 0.25 mg/ml BSA, 5 mM Mg acetate, 1 mM ATPgS, 30 mM NaCl, 30 C 15 min, 100 nM bp DNA; plasmid EMSA: 80 mM KCl, plus 1 mM MnCl2, 30 C 1 h; mass photometry 25 mM KCl. The settings on record: protein: recombinant; tags: Mre11-6xHis; Rad50 untagged; chain copies: 2;2; label: 3'-32P on strand 1 (terminal transferase); blunt before 3' labeling.

In data set [9] the target is MRlo (S. cerevisiae, UniProt P32829;P12753 1-692;1-1312, L116A;I119A;T127A;L128A;Rad50:). In words: mass photometry; 25 mM KCl, 5 nM protein, 2.5 nM DNA; Oligo EMSA: 25 mM Tris acetate pH 7.5, 1 mM DTT, 0.25 mg/ml BSA, 5 mM Mg acetate, 1 mM ATPgS, 30 mM NaCl, 30 C 15 min, 100 nM bp DNA; plasmid EMSA: 80 mM KCl, plus 1 mM MnCl2, 30 C 1 h; mass photometry 25 mM KCl. The conditions noted are these: protein: recombinant; tags: Mre11-6xHis; Rad50 untagged; chain copies: 2;2; 1-nt 5' overhangs as printed.
Sequence of MRlo (P32829 whole entry, stated change not applied, one chain of several): as the sequence (P32829 whole entry, one chain of several) above

Data set [10] deals with the molecule itself. In words: negative staining TEM; purified complexes without DNA; 25 mM Tris acetate pH 7.5, 1 mM DTT, 120 mM KCl; 4 °C, or 30 °C for 30 min with 5 mM Mg2+, 1 mM Mn2+, 1 mM ATPγS; oligomers stable at 150 mM KCl or NaCl; step: M2R2 to (M2R2)n.
Data set [11] deals with the molecule itself. Briefly: negative staining TEM; proteins on linear or circular plasmid DNA, 30 °C 30 min, Mg2+, Mn2+, ATPγS (or ATP), 30-50 mM KCl; 50-100 nM MR; oligomerization on DNA.

Positions count from the first letter of the chain named. In names and notes the source's numbering stands.

B1: 31 bp EMSA (X12-3SC) (dsDNA)
DNA 1: TTGCTAGGACATGCTGTCTAGAGACTATCGC
DNA 2: GCGATAGTCTCTAGACAGCATGTCCTAGCAA
B1: the Kd in [1] was approximately 13.6 nM.

B2: 70 bp EMSA (PC210/PC211) (dsDNA)
DNA 1: GTAAGTGCCGCGGTGCGGGTGCCAGGGCGTGCCCTTGGGCTCCCCGGGCGCGTACTCCACCTCATGCATC
DNA 2: GATGCATGAGGTGGAGTACGCGCCCGGGGAGCCCAAGGGCACGCCCTGGCACCCGCACCGCGGCACTTAC
modifications: biotin positions marked in table
As to B2, in [2], the Kd was approximately 6.96 nM.

B3: 106 bp mass photometry (dsDNA)
DNA 1: TTAGCTCCTACGCGGAACGAGACCTACCAATATACCTATATCAATGGCCTCCCACGCATAAGCCTCGGGAGCTCGACCATCTGGTCTCATCGGACACTTAGGACCA
DNA 2: TGGTCCTAAGTGTCCGATGAGACCAGATGGTCGAGCTCCCGAGGCTTATGCGTGGGAGGCCATTGATATAGGTATATTGGTAGGTCTCGTTCCGCGTAGGAGCTAA
For the molecule B3, the binding result in data set [3], in data set [4] (blunt) and in data set [5] was “binds” throughout.

B4: 73 bp mass photometry (dsDNA)
DNA 1: GACCACCCTTTTTGATATAATATACCTATATCAATGGGCTCCCACGCAATTCGGCAGATACGTTCTGAGGGAA
DNA 2: GCCCATTGATATAGGTATATTATATCAAAAAGGGTGGTCTTCCCTCAGAACGTATCTGCCGAATTGCGTGGGA
Turning to B4, the binding result in data set [6] and in data set [7] was “binds” each time.

B5: 20 bp EMSA (PC216_20 nt) (dsDNA)
DNA 1: CGTACTCCACCTCATGCATC
DNA 2: GATGCATGAGGTGGAGTACG
modifications: biotin position marked on a T of strand 2 in table
B5: in data set [8], the Kd is approximately 22 nM.

B6: 197 bp mass photometry (dsDNA)
DNA 1: GCTTCGTATGTTTCTCCTGCTTATCACCTTCTTGAAGGCTTCCCATTCATTCAGGAACCGCCTTCTGGTGATTTGCAAGAACGCGTACTTATTCGCCACCATGATTATGACCAGTGTTTCCAGTCCGTTCAGTTGTTGCAGTGGAATAGTCAGGTTAAATTTAATGTGACCGTTTATCGCAATCTGCCGACCACTCG
DNA 2: GCGAGTGGTCGGCAGATTGCGATAAACGGTCACATTAAATTTAACCTGACTATTCCACTGCAACAACTGAACGGACTGGAAACACTGGTCATAATCATGGTGGCGAATAAGTACGCGTTCTTGCAAATCACCAGAAGGCGGTTCCTGAATGAATGGGAAGCCTTCAAGAAGGTGATAAGCAGGAGAAACATACGAAG
Take B6: the binding result is “binds” in data set [4] (1-nt 5' overhangs as printed) and “no binding” in data set [9].

B7: S. cerevisiae Rad50, wild type, untagged (co-expressed subunit) (natural protein, UniProt P12753 1-1312, looked up)
chain: MSAIYKLSIQGIRSFDSNDRETIEFGKPLTLIVGMNGSGKTTIIECLKYATTGDLPPNSKGGVFIHDPKITGEKDIRAQVKLAFTSANGLNMIVTRNIQLLMKKTTTTFKTLEGQLVAINNSGDRSTLSTRSLELDAQVPLYLGVPKAILEYVIFCHQEDSLWPLSEPSNLKKKFDEIFQAMKFTKALDNLKSIKKDMSVDIKLLKQSVEHLKLDKDRSKAMKLNIHQLQTKIDQYNEEVSEIESQLNEITEKSDKLFKSNQDFQKILSKVENLKNTKLSISDQVKRLSNSIDILDLSKPDLQNLLANFSKVLMDKNNQLRDLETDISSLKDRQSSLQSLSNSLIRRQGELEAGKETYEKNRNHLSSLKEAFQHKFQGLSNIENSDMAQVNHEMSQFKAFISQDLTDTIDQFAKDIQLKETNLSDLIKSITVDSQNLEYNKKDRSKLIHDSEELAEKLKSFKSLSTQDSLNHELENLKTYKEKLQSWESENIIPKLNQKIEEKNNEMIILENQIEKFQDRIMKTNQQADLYAKLGLIKKSINTKLDELQKITEKLQNDSRIRQVFPLTQEFQRADLEMDFQKLFINMQKNIAINNKKMHELDRRYTNALYNLNTIEKDLQDNQKSKEKVIQLLSENLPEDCTIDEYNDVLEETELSYKTALENLKMHQTTLEFNRKALEIAERDSCCYLCSRKFENESFKSKLLQELKTKTDANFEKTLKDTVQNEKEYLHSLRLLEKHIITLNSINEKIDNSQKCLEKAKEETKTSKSKLDELEVDSTKLKDEKELAESEIRPLIEKFTYLEKELKDLENSSKTISEELSIYNTSEDGIQTVDELRDQQRKMNDSLRELRKTISDLQMEKDEKVRENSRMINLIKEKELTVSEIESSLTQKQNIDDSIRSKRENINDIDSRVKELEARIISLKNKKDEAQSVLDKVKNERDIQVRNKQKTVADINRLIDRFQTIYNEVVDFEAKGFDELQTTIKELELNKAQMLELKEQLDLKSNEVNEEKRKLADSNNEEKNLKQNLELIELKSQLQHIESEISRLDVQNAEAERDKYQEESLRLRTRFEKLSSENAGKLGEMKQLQNQIDSLTHQLRTDYKDIEKNYHKEWVELQTRSFVTDDIDVYSKALDSAIMKYHGLKMQDINRIIDELWKRTYSGTDIDTIKIRSDEVSSTVKGKSYNYRVVMYKQDVELDMRGRCSAGQKVLASIIIRLALSETFGANCGVIALDEPTTNLDEENIESLAKSLHNIINMRRHQKNFQLIVITHDEKFLGHMNAAAFTDHFFKVKRDDRQKSQIEWVDINRVTY
notes: Rad50, S. cerevisiae, untagged; also called Rad50^wt; untagged Rad50; source: Sf9, co-expressed with Mre11-6xHis (and FLAG-Xrs2)
Take B7: in [10], the binding result is “binds”.

B8: S. cerevisiae Rad50, wild type, expressed and purified alone (natural protein, UniProt P12753 1-1312, looked up)
chain: B7 chain
notes: Rad50, S. cerevisiae; also called Rad50^wt
With B8, in data set [11], the binding result is “binds”.

B9: S. cerevisiae Rad50^N121A/D124N, expressed and purified alone (natural protein, UniProt P12753 1-1312, looked up)
chain: B7 chain with N121A, D124N
notes: Rad50, S. cerevisiae; also called Rad50^ho
As for B9, the binding result in data set [11] is reported as “binds”.
